Measured values: the supplement of paper PMC9170038

system: K4 kissing-loop RNA reporter; experiment: apparent KD of K4 kissing-loop reporter; higher = weaker reporter binding; conditions: Eterna round: R107; input ligand: tryptophan 2.4 mM
Protocol: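 RNA-MaP round R107: designed RNA switches with theophylline, tryptophan, arginine or FMN aptamers are transcribed on-chip within common flanks. They are titrated with a labelled K4 kissing-loop RNA reporter in RNA-MaP buffer (100 mM Tris pH 7.5, 80 mM KCl, 4 mM MgCl2), without ligand or with the indicated ligand. Median apparent KD per design.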
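Note: bound reporter read as fluorescence of individual clusters on recovered sequencing chips by microscopy, with normalized cluster intensities fitted with a binding model.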

Sequence	apparent KD of K4 kissing-loop reporter
AAUAACUUGCAGUGAUGUUGCAAGAAAUCUCAGGAUAUCAGGAAACUGAGAAGGGAGUAUCCUGAGUAAACAUCACAUCUUAGGA [KL-SSFMN-A8]	369 nM
AGUGAUGUUGUGUUAUCUUAGUGAAGUGAUCGAGGACCGGUACGGCCGCCACUCGAGUGAUGAGUGAGUGAUGUUUGUUUAGGGA [vvbmullin]	561 nM
UGUCAUGGAAACAUGAACGUUAAAAUAAAUCGAGGACCGGUACGGCCGCCACUCGUAUAGCGGUCAGUGAUGUUGACUGUAGUAC [KL-SSTryp-A form2 sub11 #dotplot2>1]	101 nM
UUGUUUUACUGAAGGAGCGGCAAUUGAUACGUAGAUAUAGUGAUGUUAUAUAAGAUAGAGAGCCAGGUAGGUCGCAGAUGUGUUU [ExArgB.T]	149 nM
UGAUACCAGACGGCCGCCACUCCCGUAAGUCAAAGACUUACCAAGAGUAUCGUCCAGUGAUGUUGGAGGACCGGGUCUGGUAUCU [FiskerMod 9 - Jieux - Exclusion - Tryptophan B]	829 nM
UGAUAGGACAGAAGGAGCGGAAGUGAUGUUUCCAAAAGGGUAAGGUGUCAAAAGACACCCUUCCAGGUAGGUCGCUGUCCUAUCU	86.3 nM
CCUAUCUCAUACGAUACCAGUCAAUUAAAACGAGUGAUGUUCGAAAAUUUGCCAUAUAAUGACCCUUGGCAGCGUAUGGGAUAGG [Ex Theophylline B K4 7]	164 nM
GCCGUAGAUUGAAGGAGCGGCUUCAUCAAAUCUCUUGCCCGCACCAGUGAUGUUGGUGUUAGCCAGGUAGGUCGCAAUCUACGGC	465 nM
AAACAUCACUGGGAGUGAUGUUCUCAGUGACGAGGACCGGUACGGCCGCCACUCGCGAGAGAUUUAGUCUAGUAUUGACUGCAUU [Excl Tryptophan A V11]	358 nM
AGUGAUGUGGGAAGGAGCGGUAUAUGAGUUCAGUGAUGUUGAAGUGAUGCUGUAGUGAUGUGCCAGGUAGGUCGCCUAGAUGUUA [whbob_Ex_Arginine_B_2th165]	290 nM
GGGCGUAUUCACCGAGUGAUGUUCGGAAGGAAGGAUAUUCAAGAUUGAAGAAGGUCCGGCCCAUCGGCCAUUAAACUUGAAAGGU [theeternabot_sameState_KL_FMN_A_48]	117 nM
AUUCGUUUAUGUGAUACCAGACUUUGCAGUGAUGUUGCAUUAAUUAUUGAUGAUUAGUUUGUCCCUUGGCAGCACUAUUUAUUUA [JR_SSTheophyB_Sub003]	47.7 nM
AUGUCUUAUAAACUCAUGGUUUCGACAGAUACCAGCUUCGAGAGGAGCCCUUGGCAGCUGCAUGAGUGAUGUUCAUGUACGAAGA [KL-XTheoA6]	301 nM
GGUUCCUCAGUGAUGUUGAGGUGACCUCGGCAGGAUAUAGGCAUUACUAGAAGGGCCAAAUGAACCCUGUCCAGCGGCACAGGGA [Arleorbile]	252 nM
AACCACUCGUUACAUCACUAUCGAGUGGAACGAGGACCGGUACGGCCGCCACUCGAUAAGAUGCAGUGAUGUUGCAUCUAAGAAU [KL-SSTryp-A (BrourdMod)5 #dotplot2 strengthened]	141 nM
GCCUGAGCACGAAGGAGCGCCGUGACAGGUUACUGCCUUGGGCAGUGAUGUUGCUCAAUCUGGCAGGUAGGUCGCGUGCUCAGGC	167 nM
UGUACCGAGUCAGGAUAUAGCGUCGAAAGACGAAAUGGAGUGAUGUUCCUUAAACUGCGAAAGCAGCUAGAAGGGACUUGGUACU [FmnBS 28 #SwitchBubble #StaticStem #DoubleMagnetSystem]	239 nM
CGCAGUGAUGUUGCGAGUUCAUUCAGGGAAGGAGCGCCACAGAUGGCAGGUAGGUCGCCCACGCAGUGAUGUUGUGUAUUCGGGU [Exclusion Arginine A GF 2]	137 nM
UACUAUAGUGAUGUUAUAGAUAAACCAGAUACCAGUGUAACAUAACACCCUUGGCAGCUGAUGAGGGAAGUUAUCAAAAGAUAAC [AstroSTH-A#10designED4.80]	198 nM
UUUUUGGAGAAUUAUAGUGAUGUUAUGAAGGAGGAUAUCUGGAGAUGGAGAAGGCCUAGUGGCUCAGCCCUGGAGGGUGGGUGGG [ExFMNA.aB]	572 nM
UUACAGGAACAAGGAUAUGGCGUUGUAGUGAUGUUACAGCGAAGAGCUCCACGCGAUCGGACAAAACCAGAAGGUGUAUGGAAUC [theeternabot_exclusion_KL_FMN_B_42]	112 nM
GGUUGAAGCACCCGGAGUGAUGUUCCGGAUACCAGCAAACCAACUUGCCCUUGGCAGCCGUAUAGCGUCCGGUGGGCCGAGCAUA [Beisadi]	90 nM
UGACUGGACUGAAGGAGCGCGCGAGACAAAGUCUCGAACUCUUAGUGAUGUUAGGAAAUAACGCAGGUAGGUCGCAGUCUAGUCU	408 nM
CGGCGGAGUGAUGUUCUGCUCGCUCCGGAUACCAGCUUCGCCAGAGGCCCUUGGCAGCCGGGCGGCCCAGUGAUGUUGGGUUGCG [Same State Theophylline A GF 17]	237 nM
AACUCUCAGGCAGCCGAGUGAUGUUCGGCCCGAGGACCGGUACGGCCGCCACUCGGGCCUGAGAGAGGUUAUCAAAGAUAGCCAA [#01 K4 Tryptophan A Same State]	131 nM
GUACAUUGGAAACAAGAACAAAUAACCGAAGGAGCGCGUGAAAACGCAGGUAGGUCGCGGAAGCAGUGAUGUUGCAUUAGAGAUC [Same State Arginine A GF 16]	60.3 nM
CGGAGUGAUGUUCCUUUUAUUAAUUAUUUACGAGGACCGGUACGGCCGCCACUCGAUUUAGCUUUUAUUUAAUGCUUGGAUGUUU [JR_SSTryptoA_Sub004]	66.3 nM
